From patent EP4700040A1 (Shenzhen Loggene Life Science & Technology Co., Ltd., dated 2024)
Like-named read-outs stand apart in the source and are kept apart here.

Legend:
[1] = target: T1, Recombinant human IL6 protein with C-terminal six-histidine tag (human, UniProt P05231 29-212); assay: homogeneous split-luciferase sandwich with OL-453, signal rises with IL6
T1 construct: also called human interleukin 6

[2] = target: Large subunit-rSCFV5 fusion protein; assay: cell-based or functional assay
[3] = target: Large subunit-rSCFV5 fusion protein; assay: cell-based or functional assay; remark: listed apart in the source
[4] = target: Large subunit-rSCFV5 fusion protein; assay: cell-based or functional assay; remark: listed apart in the source
[5] = target: Large subunit-rSCFV5 fusion protein; assay: cell-based or functional assay; remark: listed apart in the source
[6] = target: Large subunit-rSCFV5 fusion protein; assay: cell-based or functional assay; remark: listed apart in the source
[7] = target: T1, Recombinant human IL6 protein with …; assay: homogeneous split-luciferase sandwich with RB073-449-1, signal rises with IL6

| Binder | binding result [1] | Signal-to-noise ratio at 1000 pg/ml [2] | Signal-to-noise ratio at 1000 pg/ml [3] | Signal-to-noise ratio at 1000 pg/ml [4] | Signal-to-noise ratio [5] | Signal-to-noise ratio [6] | binding result [7] |
| --- | --- | --- | --- | --- | --- | --- | --- |
| fusion protein RB073-449-1 of the small subunit peptide RB073 with human IL6 SCFV antibody 449-1 (other, also called small subunit fusion protein RB073-449-1) VEGYRLFDRKSGGGGSGGGGSGGGGSQSALTQPSSVSKSLGQSVSITCSGSSSNVGYGNYVSWYQQVPGSAPKFLIYGATSRASGVPARFSGSRSGNTATLSISSLQAEDEADYYCASYDSSSYGVFGSGTTLTVLSSGGGGSGGGGGGSSRSSQVRLQESGPSLVKPSQTLSLTCTVSGFSLTNYPVGWVRQAPGKALEWLGGISSGGGTAYNPALKSRLSFTRDTSKNQVSLSLSSVTSEDTAVYYCTRGNGDYVLRYGADVWGRGLLVTVSSGSGHHHHHH | binds |  |  |  |  |  |  |
| rSCFV18-RB073 fusion protein (other) AHHHHHHGSGDIVLTQTPSPVSAAVGGTVSINCQSSQSVYKNNRLSWYQQKPGQPPKFLIYDTSKLASGVPSRFSGSGSGTQFTLTISDLECDDAATYYCAGGYSNNIGAFGGGTEVVVKSSGGGGSGGGGGGSSRSSQSLEESRGRLVTPGGSLTLTCSVSGFSLSIYNMGWVRQAPGEGLEWIGVIGSSGNTYYASWAKGRFTISRNTNDNTVDLKITSPTTGDTATYFCARGFSSFDIWGPGTLVTVSSGGGGSGGGGSGGGGSVEGYRLFDRKS |  |  | 14.5 | 38.9 | 48 |  |  |

Results, then the binder that gave them:

| binding result [1] | Signal-to-noise ratio at 1000 pg/ml [2] | Signal-to-noise ratio at 1000 pg/ml [3] | Signal-to-noise ratio at 1000 pg/ml [4] | Signal-to-noise ratio [5] | Signal-to-noise ratio [6] | binding result [7] | Binder |
| --- | --- | --- | --- | --- | --- | --- | --- |
|  | 3.8 | 3.8 | 1.44 | 12.2 | 1.9 |  | rSCFV18-small subunit P114 fusion protein (other) AHHHHHHGSGDIVLTQTPSPVSAAVGGTVSINCQSSQSVYKNNRLSWYQQKPGQPPKFLIYDTSKLASGVPSRFSGSGSGTQFTLTISDLECDDAATYYCAGGYSNNIGAFGGGTEVVVKSSGGGGSGGGGGGSSRSSQSLEESRGRLVTPGGSLTLTCSVSGFSLSIYNMGWVRQAPGEGLEWIGVIGSSGNTYYASWAKGRFTISRNTNDNTVDLKITSPTTGDTATYFCARGFSSFDIWGPGTLVTVSSGGGGSGGGGSGGGGSVTGYRLFEEIL |
|  |  |  |  |  |  | binds | fusion protein OL-453 of the large subunit with human IL6 SCFV antibody 453 (other, also called large subunit fusion protein OL-453) VFTLEDFVGDWEQTAAYNLDQVLEQGGVSSLLQNLAVSVTPIQRIVRSGENALKIDIHVIIPYEGLSADQMAQIEEVFKVVYPVDDHHFKVILPYGTLVIDGVTPNMLNYFGRPYEGIAVFDGKKITVTGTLWNGNKIIDERLITPDGSMLFRVTINSGSSGGGGSGGGGSGGQAVLTQPSSVSKSLGQSVSITCSGSNIGSSAVGWYQQLPGSGLKTIIYSTSSRPSGVPDRFSGSKSGNTATLTISSLQAEDEADYYCATGDRGNYGGVFGSGTRLTVLSSGGGGSGGGGGGSSRSSQVQLQESGPSLVKPSQTLSLTCTVSGFSLTSYGVGWVRQAPGKTPEWLGGIDRDGDMSYNPALKSRLSITRDTSKSQVSLSLRSVATEDTAVYYCARSSYDSHYYGDYYDVDVWGRGLLVTVSSGQAGHHHHHH |
